Patent publication US20260347469 (published 2026)

Target: 4-1BB-Fc (human, UniProt Q07011)
Experiment: BLI, 24C, avidity

Chain of 4-1BB-Fc (Q07011 24-186): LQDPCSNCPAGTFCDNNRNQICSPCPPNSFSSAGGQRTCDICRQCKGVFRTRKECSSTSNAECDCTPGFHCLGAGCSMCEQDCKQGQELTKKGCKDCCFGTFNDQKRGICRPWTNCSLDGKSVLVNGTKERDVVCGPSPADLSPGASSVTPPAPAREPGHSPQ

Kd: 0.02 nM
B1: D2 (4-1BBL trimer-Fc) (protein)
chain: KEITNALETWGALGQDINLDIPSFQMSDDIDDIKWEKTSDKKKIAQFRKEKETFKEKDTYKLFKNGTLKIKHLKTDDQDIYKVSIYDTKGKNVLEKIFDLKIQERVSKPKISWTCINTTLTCEVMNGTDPELNLYQDGKHLKLSQRVITHKWTTSLSAKFKCTAGNKVSKESSVEPVSCPEKGLDIYLIIGICGGGSLLMVFVALLVFYITKRKKQRSRRNDEELETRAHRVATEERGRKPHQIPASTPQNPATSQHPPPPPGHRSQAPSHRPPPPGHRVQHQPQKRPPAPSGTQVHQQKGPPLPRPRVQPKPPHGAAENSLSPSSN
